Assay results published in PMC4275594 (Nature Communications, 2014).
Changes are numbered by the printed parent chain. Numbers in names are those of the source.

B1: human IL-18 receptor beta extracellular domain (residues 15-356), C-terminal 6xHis, wild type, from silkworm (receptor, UniProt O95256-1 15-356, looked up)
chain: ERIKGFNISGCSTKKLLWTYSTRSEEEFVLFCDLPEPQKSHFCHRNRLSPKQVPEHLPFMGSNDLSDVQWYQQPSNGDPLEDIRKSYPHIIQDKCTLHFLTPGVNNSGSYICRPKMIKSPYDVACCVKMILEVKPQTNASCEYSASHKQDLLLGSTGSISCPSLSCQSDAQSPAVTWYKNGKLLSVERSNRIVVDEVYDYHQGTYVCDYTQSDTVSSWTVRAVVQVRTIVGDTKLKPDILDPVEDTLEVELGKPLTISCKARFGFERVFNPVIKWYIKDSDLEWEVSVPEAKSIKSTLKDEIIERNIILEKVTQRDLRRKFVCFVQNSIGNTTQSVQLKEKR
notes: IL-18 receptor beta, human, extracellular domains, residues 15-356 of NM_003853; also called IL-18Rβ; IL-18Rβ WT; source: silkworm (B. mori) larvae, BmNPV bacmid, haemolymph, purified (ion exchange, Ni-NTA, gel filtration); not shown: 6xHis, C-terminal, kept
B2: human IL-18 receptor beta extracellular domain (residues 15-356), C-terminal 6xHis, E210A (receptor, UniProt O95256-1 15-356, looked up)
chain: B1 chain with E196A
notes: IL-18 receptor beta, human, extracellular domains, residues 15-356 of NM_003853; also called IL-18Rβ E210A; source: silkworm (B. mori) larvae, BmNPV bacmid, haemolymph, purified (ion exchange, Ni-NTA, gel filtration); not shown: 6xHis, C-terminal, kept
B3: human IL-18 receptor beta extracellular domain (residues 15-356), C-terminal 6xHis, K313A (receptor, UniProt O95256-1 15-356, looked up)
chain: B1 chain with K299A
notes: IL-18 receptor beta, human, extracellular domains, residues 15-356 of NM_003853; also called IL-18Rβ K313A; source: silkworm (B. mori) larvae, BmNPV bacmid, haemolymph, purified (ion exchange, Ni-NTA, gel filtration); not shown: 6xHis, C-terminal, kept
B4: human IL-18 receptor beta extracellular domain (residues 15-356), C-terminal 6xHis, S169A-T170A (receptor, UniProt O95256-1 15-356, looked up)
chain: B1 chain with S155A, T156A
notes: IL-18 receptor beta, human, extracellular domains, residues 15-356 of NM_003853; also called IL-18RβS169A-T170A; source: silkworm (B. mori) larvae, BmNPV bacmid, haemolymph, purified (ion exchange, Ni-NTA, gel filtration); not shown: 6xHis, C-terminal, kept
B5: human IL-18 receptor beta extracellular domain (residues 15-356), C-terminal 6xHis, Y214A (receptor, UniProt O95256-1 15-356, looked up)
chain: B1 chain with Y200A
notes: IL-18 receptor beta, human, extracellular domains, residues 15-356 of NM_003853; also called IL-18Rβ Y214A; source: silkworm (B. mori) larvae, BmNPV bacmid, haemolymph, purified (ion exchange, Ni-NTA, gel filtration); not shown: 6xHis, C-terminal, kept
B6: human IL-18 receptor beta extracellular domain (residues 15-356), C-terminal 6xHis, L167A (receptor, UniProt O95256-1 15-356, looked up)
chain: B1 chain with L153A
notes: IL-18 receptor beta, human, extracellular domains, residues 15-356 of NM_003853; also called IL-18Rβ L167A; source: silkworm (B. mori) larvae, BmNPV bacmid, haemolymph, purified (ion exchange, Ni-NTA, gel filtration); not shown: 6xHis, C-terminal, kept
B7: IL-18Rβ K313A, C-terminal 6xHis tagged extracellular domains (residues 15-356), for SPR (domain or fragment, human, UniProt O95256-1 15-356, looked up)
chain: B1 chain with K299A
notes: human IL-18 receptor β, extracellular domains, residues 15-356 of NM_003853; In the luciferase reporter assay the same mutation stood in full-length IL-18Rβ (pcDNA3.1+) expressed in HEK293 cells; source: silkworm (B. mori) larvae, BmNPV bacmid, haemolymph, purified as from Sf9; not shown: 6xHis, C-terminal, kept
B8: IL-18Rβ L167A, C-terminal 6xHis tagged extracellular domains (residues 15-356), for SPR (domain or fragment, human, UniProt O95256-1 15-356, looked up)
chain: B1 chain with L153A
notes: human IL-18 receptor β, extracellular domains, residues 15-356 of NM_003853; source: silkworm (B. mori) larvae, BmNPV bacmid, haemolymph, purified as from Sf9; not shown: 6xHis, C-terminal, kept
B9: C-terminal 6xHis tagged IL-18Rβ extracellular domains (residues 15-356), for SPR (domain or fragment, human, UniProt O95256-1 15-356, looked up)
chain: B1 chain
notes: human IL-18 receptor β, extracellular domains, residues 15-356 of NM_003853; also called IL-18Rβ WT; IL-18Rβ WT (control); source: silkworm (B. mori) larvae, BmNPV bacmid, haemolymph, purified as from Sf9; not shown: 6xHis, C-terminal, kept
B10: IL-18Rβ Y214A, C-terminal 6xHis tagged extracellular domains (residues 15-356), for SPR (domain or fragment, human, UniProt O95256-1 15-356, looked up)
chain: B1 chain with Y200A
notes: as for B8
B11: IL-18Rβ E210A, C-terminal 6xHis tagged extracellular domains (residues 15-356), for SPR (domain or fragment, human, UniProt O95256-1 15-356, looked up)
chain: B1 chain with E196A
notes: as for B7
B12: IL-18 receptor α extracellular domains (residues 20-329), construct for crystallography (domain or fragment, human, UniProt Q13478 20-329, looked up)
chain: ESCTSRPHITVVEGEPFYLKHCSCSLAHEIETTTKSWYKSSGSQEHVELNPRSSSRIALHDCVLEFWPVELNDTGSYFFQMKNYTQKWKLNVIRRNKHSCFTERQVTSKIVEVKKFFQITCENSYYQTLVNSTSLYKNCKKLLLENNKNPTIKKNAEFEDQGYYSCVHFLHHNGKLFNITKTFNITIVEDRSNIVPVLLGPKLNHVAVELGKNVRLNCSALLNEEDVIYWMFGEENGSDPNIHEEKEMRIMTPEGKWHASKVLRIENIGESNLNVLYNCTVASTGGTDTKSFILVRKADMADIPGHVFTR
modifications: N-linked glycosyl chains at Asn91, 102, 150, 197, 203, 236 and 297 (high-mannose glycans, Sf9)
notes: human IL-18 receptor α, extracellular domains, residues 20-329 of NM_003855; also called IL-18Rα; source: Sf9 insect cells, secreted, purified (ion exchange, Ni-NTA, gel filtration with or without HRV 3C treatment)

Target: T1, preformed binary complex of IL-18 wild type and un-tagged IL-18Rα N236Q extracellular domain (human, UniProt Q14116 37-193; Q13478 20-329, N236Q)
T1 construct: interleukin-18, human, mature IL-18 (residues 1-157); numbers count on: the mature protein; IL-18 receptor alpha, human, extracellular domains, residues 20-329 of NM_003855; lacks the N-linked sugar chain on N236; also called IL-18WT/IL-18Rα mutant complex; IL18/IL18Rα-N236Q; source: IL-18: E. coli BL21(DE3), purified; IL-18Rα: silkworm larvae haemolymph, purified; un-tagged IL-18Rα saturated …
Assay: SPR; BIAcore 3000, 25 °C; C-terminal 6xHis IL-18Rβ (wild type or mutant) immobilised at about 100 RU on a Ni-NTA sensor chip; un-tagged IL-18Rα saturated with 500 nM IL-18 (preformed binary complex) injected as analyte in HBS-P; triplicate
Details: both partners purified

For B1, the kon was 12000 M⁻¹ s⁻¹.

Target: T2, preformed binary complex of IL-18 wild type and un-tagged IL-18Rα wild type extracellular domain (human, UniProt Q14116 37-193; Q13478 20-329)
T2 construct: interleukin-18, human, mature IL-18 (residues 1-157); numbers count on: the mature protein; IL-18 receptor alpha, human, extracellular domains, residues 20-329 of NM_003855; also called IL-18 WT/IL-18Rα WT complex; IL-18/IL-18Rα; source: IL-18: E. coli BL21(DE3), purified; IL-18Rα: silkworm larvae haemolymph, purified; un-tagged IL-18Rα saturated with 500 nM IL-18
Assay: as above
Details: both partners purified

In order of rising kon:
1. B1  11000 M⁻¹ s⁻¹
2. B4  68000 M⁻¹ s⁻¹
3. B2  71000 M⁻¹ s⁻¹
4. B6  76000 M⁻¹ s⁻¹
5. B5  97000 M⁻¹ s⁻¹
6. B3  103000 M⁻¹ s⁻¹

With B4 the Kd was 77 nM.

Target: human IL-18 receptor alpha extracellular domain (residues 20-329), C-terminal 6xHis, wild type, from silkworm (human) (UniProt Q13478)
Assay: SPR; BIAcore 3000, 25 °C; C-terminal 6xHis IL-18Rα (wild type or mutant) immobilised at about 200 RU on a Ni-NTA sensor chip; IL-18 (wild type or mutant) injected as analyte in HBS-P (10 mM HEPES-Na pH 7.4, 150 mM NaCl, 0.01% P-20), 30 µl/min, 180 s association, 360 s dissociation; triplicate
Details: not given

In order of rising Kd:
1. human interleukin-18, mature, D110A (ligand)  23 nM
2. human interleukin-18, mature, H109A (ligand)  48 nM
3. human interleukin-18, mature, K112A (ligand)  51 nM
4. human interleukin-18, mature, K79A (ligand)  55 nM
5. human interleukin-18, mature, G145A (ligand)  57 nM
6. human interleukin-18, mature, M150A (ligand)  59 nM
7. human interleukin-18, mature, R147A (ligand)  67 nM
8. human interleukin-18, mature, G108A (ligand)  184 nM

In order of rising kon:
1. human interleukin-18, mature, G108A (ligand)  52000 M⁻¹ s⁻¹
2. human interleukin-18, mature, M150A (ligand)  57000 M⁻¹ s⁻¹
3. human interleukin-18, mature, G145A (ligand)  59000 M⁻¹ s⁻¹
4. human interleukin-18, mature, H109A (ligand)  62000 M⁻¹ s⁻¹
5. human interleukin-18, mature, K112A (ligand)  64000 M⁻¹ s⁻¹
6. human interleukin-18, mature, R147A (ligand)  68000 M⁻¹ s⁻¹
7. human interleukin-18, mature, K79A (ligand)  76000 M⁻¹ s⁻¹
8. human interleukin-18, mature, D110A (ligand)  106000 M⁻¹ s⁻¹

Target: C-terminal 6xHis tagged IL-18Rβ extracellular domains (residues 15-356), for SPR (human) (UniProt O95256)
Assay: SPR; BIAcore 3000, 25 °C, C-terminal 6xHis IL-18Rβ immobilised (~100 RU) on an NTA sensor chip, un-tagged IL-18Rα saturated with 500 nM IL-18 as analyte in HBS-P
Details: not given

In order of falling Kd:
1. IL-18 R147A/IL-18Rα WT complex (SPR analyte) (from UniProt Q13478 20-329)  57 nM
2. IL-18 D110A/IL-18Rα WT complex (SPR analyte) (from UniProt Q13478 20-329)  56 nM
3. IL-18 G145A/IL-18Rα WT complex (SPR analyte) (from UniProt Q13478 20-329)  28 nM

Target: T3, IL-18 WT/IL-18Rα WT complex (SPR analyte) (human, UniProt Q14116 37-193; Q13478 20-329)
T3 construct: human interleukin-18, mature IL-18 (residues 1-157); numbers count on: the mature protein; human IL-18 receptor α, extracellular domains, residues 20-329 of NM_003855, printed as un-tagged; also called IL-18/IL-18Rα binary complex; IL-18 WT(control); source: IL-18: E. coli BL21(DE3), purified; IL-18Rα: silkworm larvae haemolymph, purified; un-tagged IL-18Rα saturated with 500 nM IL-18
Assay: as above
Details: both partners purified

In order of rising Kd:
1. B9  15 nM
2. B8  33 nM
3. B10  50 nM
4. B7  109 nM
5. B11  327 nM

Target: T4, IL-18WT/IL-18Rα N236Q complex (SPR analyte) (human, UniProt Q14116 37-193; Q13478 20-329, N236Q)
T4 construct: human interleukin-18, mature IL-18 (residues 1-157); numbers count on: the mature protein; human IL-18 receptor α, extracellular domains, residues 20-329 of NM_003855, used instead of the un-tagged wild type; The mutation removes the N-linked sugar chain at Asn236; also called N236Q^Rα; source: IL-18: E. coli BL21(DE3), purified; IL-18Rα mutant: silkworm larvae haemolymph, purified; IL-18Rα …
Assay: as above
Details: both partners purified

B9 gave a Kd of 17 nM.

Target: human IL-18 receptor beta extracellular domain (residues 15-356), C-terminal 6xHis, wild type, from silkworm (human) (UniProt O95256)
Assay: SPR; BIAcore 3000, 25 °C; C-terminal 6xHis IL-18Rβ (wild type or mutant) immobilised at about 100 RU on a Ni-NTA sensor chip; un-tagged IL-18Rα saturated with 500 nM IL-18 (preformed binary complex) injected as analyte in HBS-P; triplicate
Details: not given

In order of rising Kd:
1. preformed binary complex of IL-18 K79A and un-tagged IL-18Rα wild type extracellular domain (from UniProt Q13478 20-329)  13 nM
2. preformed binary complex of IL-18 K84A and un-tagged IL-18Rα wild type extracellular domain (from UniProt Q13478 20-329)  18 nM

In order of falling kon:
1. preformed binary complex of IL-18 R147A and un-tagged IL-18Rα wild type extracellular domain (from UniProt Q13478 20-329)  69000 M⁻¹ s⁻¹
2. preformed binary complex of IL-18 K79A and un-tagged IL-18Rα wild type extracellular domain (from UniProt Q13478 20-329)  13000 M⁻¹ s⁻¹
3. preformed binary complex of IL-18 K84A and un-tagged IL-18Rα wild type extracellular domain (from UniProt Q13478 20-329)  10000 M⁻¹ s⁻¹

Target: T5, IL-18 receptor β extracellular domains (residues 15-356), construct for crystallography (human, UniProt O95256-1 15-356)
T5 construct: human IL-18 receptor β, extracellular domains, residues 15-356 of NM_003853; also called IL-18Rβ; source: Sf9 insect cells, secreted, purified (ion exchange, Ni-NTA, gel filtration with or without HRV 3C treatment)
T5 sequence (looked up): B1 chain
Assay: crystal structure; IL-18/IL-18Rα/IL-18Rβ ternary complex, 3.10 Å, one copy in the asymmetric unit, data at 100 K (PDB 3WO4)
Details: both partners purified

B12: binds.
